Assay results taken from the supplement of paper PMC7877785.
± gives the uncertainty stated by the source.

Experiment: self-splicing fitness, log relative to wild type (ln ratio); higher = more splicing; Tetrahymena group I intron in knt gene, E. coli kanamycin selection, DiMSum; sequences stand for … in CUCUCU…GGAGGGAAAAGUUAUCAGGCAUGCACCUGGUAGCUAGUCUUUAAACCAAUAGAUUGCAUCGGUUUAAAAGGCAAGACCGUCAAAUUGCGGGAAAGGGGUCAACAGCCGUUCAGUACCAAGUCUCAGGGGAAACUUUGAGAUGGCCUUGCAAAGGGUAUGGUAAUAAGCUGACGGACAUGGUCCUAACCACGCAGCCAAGUCCUAAGUCAACAGAUCUUCUGUUGAUAUGGAUGCAGUUCACAGACUAAAUGUCGGUCGGGGAAGAUGUAUUCUUCUCAUAAGAUAUAGUCGGACCUCUCCUUAAUGGGAGCUAGCGGAUGAAGUGAUGCAACACUGGAGCCGCUGGGAACUAAUUUGUAUGCGAAAGUAUAUUGAUUAGUUUUGGAGUACUCGUGGUCG
Method in brief: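 Fitness was computed with DiMSum as the error-weighted combination of replicate fold changes, kanamycin versus none, each normalised to wild type. The library randomised all eight intron nucleotides of the P1ex region, with the intron placed in the knt kanamycin-resistance gene on pET-22b(+) in E. coli BL21(DE3). Six replicate transformations were grown overnight at 37°C or 30°C on LB agar with or without 25 μg/mL kanamycin, plus 100 μg/mL carbenicillin, 50 μM IPTG and 0.2% rhamnose. Pooled colonies were amplicon-sequenced on an Illumina HiSeq 2500.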

Row | Sequence | self-splicing fitness (ln) (30 °C) | self-splicing fitness (ln) (37 °C)
1 | UACUAGCAAUAUUACGGUUG | -2.18 ± 0.081 | -1.06 ± 0.11
2 | UACUAGCAAUAUUACGUAAG | -4.32 ± 0.31 | -3.07 ± 0.3
3 | UACUAGCAAUAUUACGUACG | -2.76 ± 0.1 | -1.31 ± 0.091
4 | UACUAGCAAUAUUACGUUGA | -3.37 ± 0.17 | -0.894 ± 0.12
5 | UAGAAGCAAUAUUACGAAAG | -1.97 ± 0.21 | -1.26 ± 0.18
6 | UAGAAGCAAUAUUACGAACA | -0.322 ± 0.16 | -0.859 ± 0.17
7 | UAGAAGCAAUAUUACGACUC | -0.192 ± 0.12 | -0.013 ± 0.16
8 | UAGAAGCAAUAUUACGAGUA | -1.31 ± 0.096 | -0.33 ± 0.12
9 | UAGAAGCAAUAUUACGCUGU | -3.73 ± 0.26 | -0.977 ± 0.15
10 | UAGAAGCAAUAUUACGGAGU | -3.56 ± 0.15 | -2.1 ± 0.13
11 | UAGAAGCAAUAUUACGGAUA | -1.18 ± 0.1 | -0.43 ± 0.11
12 | UAGAAGCAAUAUUACGGCCG | 0.101 ± 0.083 | -0.0885 ± 0.11
13 | UAGAAGCAAUAUUACGGGAC | -3.1 ± 0.36 | -3.21 ± 0.47
14 | UAGAAGCAAUAUUACGGUAG | -1.88 ± 0.13 | -0.213 ± 0.13
15 | UAGAAGCAAUAUUACGGUGC | – | -1.46 ± 0.48
16 | UAGAAGCAAUAUUACGUAUA | -1.58 ± 0.16 | -0.471 ± 0.15
17 | UAGAAGCAAUAUUACGUCCU | -0.903 ± 0.12 | -0.0829 ± 0.17
18 | UAGAAGCAAUAUUACGUGGU | -3.52 ± 0.2 | -2.54 ± 0.18
19 | UAGAAGCAAUAUUACGUUGA | -2.99 ± 0.23 | -1.62 ± 0.18
20 | UAGAAGCAAUAUUACGUUUG | -2.32 ± 0.1 | -0.879 ± 0.12
21 | UAGCAGCAAUAUUACGAAUA | -0.737 ± 0.1 | -0.606 ± 0.11
22 | UAGCAGCAAUAUUACGAGUC | -4.81 ± 0.34 | -2.22 ± 0.22
23 | UAGCAGCAAUAUUACGAUGC | – | -1.66 ± 0.49
24 | UAGCAGCAAUAUUACGAUGG | -1.6 ± 0.063 | -0.933 ± 0.073
25 | UAGCAGCAAUAUUACGAUGU | -3.82 ± 0.21 | -2.5 ± 0.2

Row | Sequence | self-splicing fitness (ln) (30 °C) | self-splicing fitness (ln) (37 °C)
26 | UAGCAGCAAUAUUACGCACA | -0.126 ± 0.072 | 0.0233 ± 0.11
27 | UAGCAGCAAUAUUACGCAUA | -1.09 ± 0.07 | -0.101 ± 0.079
28 | UAGCAGCAAUAUUACGCGAA | -1.54 ± 0.091 | -1.24 ± 0.12
29 | UAGCAGCAAUAUUACGCGAC | -3.54 ± 0.21 | -1.67 ± 0.21
30 | UAGCAGCAAUAUUACGCGCC | -1.77 ± 0.12 | -1.16 ± 0.19
31 | UAGCAGCAAUAUUACGCUCA | -0.152 ± 0.095 | 0.307 ± 0.1
32 | UAGCAGCAAUAUUACGGAAC | -4.05 ± 0.27 | -3.08 ± 0.31
33 | UAGCAGCAAUAUUACGGAAG | -3.04 ± 0.16 | -1.14 ± 0.15
34 | UAGCAGCAAUAUUACGGAGC | -2.95 ± 0.44 | -1.74 ± 0.49
35 | UAGCAGCAAUAUUACGGCAG | -0.659 ± 0.1 | 0.546 ± 0.13
36 | UAGCAGCAAUAUUACGGCUU | -1.1 ± 0.11 | 0.255 ± 0.15
37 | UAGCAGCAAUAUUACGGUAA | -1.32 ± 0.09 | -1.13 ± 0.11
38 | UAGCAGCAAUAUUACGGUCA | -0.671 ± 0.07 | 0.278 ± 0.085
39 | UAGCAGCAAUAUUACGUAUU | -3.99 ± 0.26 | -1.54 ± 0.19
40 | UAGCAGCAAUAUUACGUCGU | -3.4 ± 0.14 | -1.97 ± 0.12
41 | UAGCAGCAAUAUUACGUUAC | – | -1.36 ± 0.22
42 | UAGCAGCAAUAUUACGUUUA | -1.26 ± 0.067 | -0.291 ± 0.078
43 | UAGCAGCAAUAUUACGUUUC | -2.78 ± 0.29 | -1.85 ± 0.33
44 | UAGGAGCAAUAUUACGAAUA | -1.13 ± 0.41 | –
45 | UAGGAGCAAUAUUACGACGA | -1.21 ± 0.2 | -0.888 ± 0.28
46 | UAGGAGCAAUAUUACGAGGC | -2.87 ± 0.17 | -3 ± 0.29
47 | UAGGAGCAAUAUUACGAUUA | -0.679 ± 0.065 | 0.31 ± 0.094
48 | UAGGAGCAAUAUUACGCCUA | -3.16 ± 0.34 | -3.02 ± 0.35
49 | UAGGAGCAAUAUUACGCGCA | -0.955 ± 0.1 | -0.414 ± 0.12
50 | UAGGAGCAAUAUUACGCGCC | – | -1.03 ± 0.37

Row | Sequence | self-splicing fitness (ln) (30 °C) | self-splicing fitness (ln) (37 °C)
51 | UAGGAGCAAUAUUACGCGGG | – | -1.24 ± 0.21
52 | UAGGAGCAAUAUUACGCUGG | -2.38 ± 0.43 | -0.826 ± 0.28
53 | UAGGAGCAAUAUUACGGACG | – | -0.862 ± 0.38
54 | UAGGAGCAAUAUUACGGGGG | – | -2.74 ± 0.41
55 | UAGGAGCAAUAUUACGUAAA | -2.09 ± 0.16 | -1.49 ± 0.15
56 | UAGGAGCAAUAUUACGUAGC | -3.98 ± 0.24 | -2.74 ± 0.21
57 | UAGGAGCAAUAUUACGUCCA | -1.23 ± 0.17 | -0.339 ± 0.18
58 | UAGGAGCAAUAUUACGUGCG | -2.89 ± 0.17 | -0.951 ± 0.16
59 | UAGGAGCAAUAUUACGUGUU | -2.97 ± 0.13 | -2.51 ± 0.17
60 | UAGGAGCAAUAUUACGUUAC | – | -2.08 ± 0.32
61 | UAGUAGCAAUAUUACGACAG | -2.01 ± 0.3 | -1.18 ± 0.37
62 | UAGUAGCAAUAUUACGACCU | -0.902 ± 0.11 | 0.242 ± 0.11
63 | UAGUAGCAAUAUUACGCAGA | -2.43 ± 0.23 | -2.99 ± 0.18
64 | UAGUAGCAAUAUUACGCAUA | -1.58 ± 0.11 | -1.69 ± 0.11
65 | UAGUAGCAAUAUUACGCCCU | -1.34 ± 0.21 | -0.583 ± 0.2
66 | UAGUAGCAAUAUUACGGCGG | -0.668 ± 0.085 | -0.639 ± 0.11
67 | UAGUAGCAAUAUUACGGCGU | -2.15 ± 0.17 | -1.2 ± 0.17
68 | UAGUAGCAAUAUUACGGGAG | -3.69 ± 0.4 | -2.3 ± 0.45
69 | UAGUAGCAAUAUUACGGUGG | -3.44 ± 0.27 | -2.09 ± 0.2
70 | UAGUAGCAAUAUUACGUCUA | 0.265 ± 0.095 | 0.659 ± 0.1
71 | UAGUAGCAAUAUUACGUGCC | -2.98 ± 0.25 | -2.11 ± 0.27
72 | UAUAAGCAAUAUUACGCAAG | -1.86 ± 0.23 | 0.725 ± 0.17
73 | UAUAAGCAAUAUUACGCAGU | -3.27 ± 0.2 | -1.68 ± 0.15
74 | UAUAAGCAAUAUUACGCAUG | -0.714 ± 0.12 | -0.154 ± 0.13
75 | UAUAAGCAAUAUUACGCCAG | -0.478 ± 0.21 | -0.728 ± 0.27

Row | Sequence | self-splicing fitness (ln) (30 °C) | self-splicing fitness (ln) (37 °C)
76 | UAUAAGCAAUAUUACGCGGC | -3.53 ± 0.35 | -2.92 ± 0.47
77 | UAUAAGCAAUAUUACGCGUC | -3.23 ± 0.28 | -1.14 ± 0.23
78 | UAUAAGCAAUAUUACGCUGU | -2.45 ± 0.2 | -3.32 ± 0.35
79 | UAUAAGCAAUAUUACGGAGU | -3.46 ± 0.32 | -1.46 ± 0.2
80 | UAUAAGCAAUAUUACGGAUG | -0.677 ± 0.055 | -0.286 ± 0.083
81 | UAUAAGCAAUAUUACGGCGA | -0.0284 ± 0.1 | -0.427 ± 0.11
82 | UAUAAGCAAUAUUACGGCGG | 0.309 ± 0.2 | -0.0854 ± 0.25
83 | UAUAAGCAAUAUUACGGGCG | -0.413 ± 0.14 | 0.339 ± 0.17
84 | UAUAAGCAAUAUUACGGUGA | -1 ± 0.13 | -0.726 ± 0.13
85 | UAUAAGCAAUAUUACGGUGU | -2.97 ± 0.26 | -1.34 ± 0.18
86 | UAUAAGCAAUAUUACGGUUA | 0.0292 ± 0.084 | 0.311 ± 0.095
87 | UAUAAGCAAUAUUACGUAAC | -3.16 ± 0.27 | 0.142 ± 0.22
88 | UAUAAGCAAUAUUACGUGCG | -0.452 ± 0.11 | -0.00615 ± 0.17
89 | UAUAAGCAAUAUUACGUUAU | -2.58 ± 0.19 | -2.3 ± 0.28
90 | UAUCAGCAAUAUUACGACGA | -0.537 ± 0.1 | -0.425 ± 0.11
91 | UAUCAGCAAUAUUACGACGU | -1.22 ± 0.094 | -0.199 ± 0.11
92 | UAUCAGCAAUAUUACGAGAU | -3.27 ± 0.16 | -2.21 ± 0.23
93 | UAUCAGCAAUAUUACGAGGG | -2.76 ± 0.18 | -1.61 ± 0.19
94 | UAUCAGCAAUAUUACGAUAA | -0.166 ± 0.081 | -0.065 ± 0.092
95 | UAUCAGCAAUAUUACGAUUA | 0.023 ± 0.072 | 0.233 ± 0.087
96 | UAUCAGCAAUAUUACGCAGC | -2.17 ± 0.19 | -1.53 ± 0.18
97 | UAUCAGCAAUAUUACGCCCA | 0.297 ± 0.18 | 0.008 ± 0.18
98 | UAUCAGCAAUAUUACGCCGU | -1.43 ± 0.24 | 0.487 ± 0.22
